Results taken from the supplement of paper PMC9170038.

Test system: MS2 coat protein
Assay: apparent KD of MS2 coat protein; designed switch direction (-1 OFF switch, 1 ON switch): -1; higher = weaker reporter binding
Procedure, shortened: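 The buffer was Tris-HCl pH 7.5 with KCl, MgCl2, BSA, DTT, tRNA and Tween-20. In it, SNAP-549-labelled MS2 coat protein was titrated in doubling steps from 0.7 or 1.5 nM to 3 µM over chip-bound RNA switches transcribed by stalled E. coli RNA polymerase on Illumina chips. Apparent KD is the per-design median over clusters of curve fits to normalised fluorescence.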

[1] = input ligand: microRNA oligo, concentration not stated
[2] = Eterna round: R95, input ligand: microRNA oligo, concentration not stated
[3] = Eterna round: R95, input ligand: FMN 200 uM
[4] = Eterna round: R95, input ligand: none

Row | Sequence | apparent KD of MS2 coat protein (input ligand: FMN 200 uM) | apparent KD of MS2 coat protein (input ligand: none) | apparent KD of MS2 coat protein [1] | also measured
1 | AAUCAGUGUGUGAGGAUAUUGGUGGAGUGACUUAUUAAGAAGGCACAUGAGGAUCACCCAUGUGGGAAGUCAGG [JR_BMEx4_Sub017] (Eterna round: R97, puzzle: Brourd's mod of Exclusion 4) | 13.9 nM | 14.8 nM | – | –
2 | AAUCCACAUGAGGAUCACCCAUGUCAGGAUAUCUUUGGCCUAACAUGUUAGGACCGUUAGAGAAGGGACACGAU [EX1 B.28] (Eterna round: R97, puzzle: Exclusion 1) | 70.3 nM | 18.2 nM | – | –
3 | AAUCCACAUGAGGAUCACCCAUGUGAGGAUAUGUCCAUAUUCGGCAAAUCGGAUAUGGACAGAAGGCACAUAAA [JR_Exclusion1_Sub013] (Eterna round: R96, puzzle: Exclusion 1) | 99.5 nM | 26.5 nM | 21 nM | –
4 | AAUCCACAUGAGGAUCACCCAUGUGAGGAUAUGUCCAUAUUCGGCAAAUCGGAUAUGGACAGAAGGCACAUAAA [JR_Exclusion1_Sub013] (puzzle: Exclusion 1) | – | – | – | apparent KD of MS2 coat protein [2]: 28.3 nM
5 | AAUCCUGAAGUUAGGAUAUGAAGUAUCACUACACUUCAGAAGGAACUUGAGGAUCACCCAAGUAGCCGUGAGGC [jl-bmx4.4.63 ViennaUCT mod] (Eterna round: R97, puzzle: Brourd's mod of Exclusion 4) | 96 nM | 20.3 nM | – | –
6 | AAUCUACAUGUAGGAUAUGCGUGGCGAAGCUAUGCAGAAGGACAUGAGGAUCACCCAUGUUUUAGCGUCUGCGUACAGAUGCGA [Mat - Exclusion NG 1 - Mod of JL - D99] (Eterna round: R96, puzzle: Exclusion NG 1) | 269 nM | 27.2 nM | 24.4 nM | –
7 | AAUGAUGAUGUGAGGAUAUACAUAGUUAGACCGUAGUAGAAGGCACAUGAGGAUCACCCAUGUAGAUGUAAGGU [JR_BME4_Sub002] (puzzle: Brourd's mod of Exclusion 4) | – | – | – | apparent KD of MS2 coat protein [3]: 26.3 nM; apparent KD of MS2 coat protein [2]: 17 nM; apparent KD of MS2 coat protein [4]: 17.7 nM
8 | AAUGAUUGACGAGGAUAUUGUGGUAGAUCACGACGAGAAGGCGUCUGUCACAUGAGGAUCACCCAUGUGAGCUUUGUGGAUAGA [Ex NG1 #73] (Eterna round: R96, puzzle: Exclusion NG 1) | 51.6 nM | 72.2 nM | 37.4 nM | –
9 | AAUGGGCAAGCAUGAUCCCACAUGAGGAUCACCCAUGUGUUCGUCUUAUAGGCUGCUGAGGCUUUUGCCUCGGUGGC [LRO Sensor-off var1-03 loose mod of D91 from Mat747] (Eterna round: R97, puzzle: Sensor, turn-off variant 1) | 850 nM | 1370 nM | – | –
10 | AAUUAAACAAGCAGAUCCCACAUGAGGAUCACCCAUGUGCUCGUCUUAUAAGGUACUGUGACGAUAGUCACGGUACC [Mat - Sensor, turn-off var - Eli Mod - D65] (Eterna round: R97, puzzle: Sensor, turn-off variant 1) | 44.6 nM | 42.7 nM | – | –
11 | AAUUAAUAUCAGGAUAUGACGUGCUUCGGCACGUCAGAAGGGAUGACAUGAGGAUCACCCAUGUGAUCAAUUAA [E6/1-A1] (Eterna round: R97, puzzle: Exclusion 6) | 105 nM | 28.6 nM | – | –
12 | AAUUAAUGUGUGAGGAUAUUGAUGGAAUGACUUAUUAAGAAGGCACAUGAGGAUCACCCAUGUGGGAAGUCACG [JR_BMEx4_Sub015] (Eterna round: R97, puzzle: Brourd's mod of Exclusion 4) | 27.6 nM | 18.6 nM | – | –
13 | AAUUAGCAAGCGAGAUCCCACAUGAGGAUCACCCAUGUGCUCGUCUUAUAAAAGACUGUGACGAAAGUCACGGUCAC [Mat - Sensor, turn-off var - Eli Mod - D26] (Eterna round: R97, puzzle: Sensor, turn-off variant 1) | 14 nM | 15.9 nM | – | –
14 | AAUUAUAGAGGAUAUACAGAUUAAUACAUGAGGAUCACCCAUGUUCUUCAAUGUAUAUAUGUAGAAGGCUAAGGAA [JR_Ex5_Sub091] (Eterna round: R97, puzzle: Exclusion 5) | 181 nM | 238 nM | – | –
15 | AAUUAUUAUUGAGGAUAUCGUAUUGAAACAAUACGAGAAGGCGGGAUAAACAUGAGGAUCACCCAUGUGAGCCUGAUGCUUGUG [Ex NG1 #41] (Eterna round: R96, puzzle: Exclusion NG 1) | – | – | 13.4 nM | –
16 | AAUUAUUGAUGAGGAUAUUGUGGUGAAACACGACAAGAAGGCAUUAUUCACAUGAGGAUCACCCAUGUGAGCCUGAUGCAUAUA [Ex NG1 #60] (Eterna round: R96, puzzle: Exclusion NG 1) | – | – | 11.5 nM | –
17 | AAUUAUUGAUGAGGAUAUUGUGGUGAAACACGACAAGAAGGCAUUAUUCACAUGAGGAUCACCCAUGUGAGCCUGGUGCAUAUA [Ex NG1 #61] (Eterna round: R96, puzzle: Exclusion NG 1) | – | – | 11.6 nM | –
18 | AAUUAUUGAUGAGGAUAUUGUGGUGAAACACGACGAGAAGGCAUAUGUCACAUGAGGAUCACCCAUGUGAGCCUUGUGGAUAUA [Ex NG1 #65] (Eterna round: R96, puzzle: Exclusion NG 1) | – | – | 43.5 nM | –
19 | AAUUAUUGAUGAGGAUAUUGUGGUGAAACACGACGAGAAGGCAUUUGUCACAUGAGGAUCACCCAUGUGAGCCUUGUGCAUAUA [Ex NG1 #63] (Eterna round: R96, puzzle: Exclusion NG 1) | 25.2 nM | 15.1 nM | 18.7 nM | –
20 | AAUUAUUUAUGAGGAUAUUGUGGUGAAACACCACAAGAAGGCAUGAUACACAUGAGGAUCACCCAUGUGAGCCUGAUGCUUAUG [Ex NG1 #54] (Eterna round: R96, puzzle: Exclusion NG 1) | – | – | 13.7 nM | –
21 | AAUUAUUUUUGAGGAUAUGGUGGUGAAACACCACCAGAAGGCGGAAUAAACAUGAGGAUCACCCAUGUGAGCCUGAUGCUUAUG [Ex NG1 #47] (Eterna round: R96, puzzle: Exclusion NG 1) | – | – | 17.5 nM | –
22 | AAUUCACAAGCGAGAUCCCACAUGAGGAUCACCCAUGUGCUCGUCUUAUAAGGUACUGUGACGAUAGUCACGGUACC [Mat - Sensor, turn-off var - Eli Mod - D87] (Eterna round: R97, puzzle: Sensor, turn-off variant 1) | 16.4 nM | 16.1 nM | – | –
23 | AAUUCACAUGAGGAUCACCCAUGUCAGGAUAUGGUUACGCGGGUUUCGGUGCGUGUGGCCAGAAGGGACAGCUA (puzzle: Exclusion 1) | – | – | – | apparent KD of MS2 coat protein [2]: 54.6 nM
24 | AAUUCCAAGCUCAACGUUCACAUGAGGAUCACCCAUGUCAUGAGCUGUUAUAAGUUCGGAUGUUAUAUUUUGCUCGU [Eternabot (L2) Solution 12] (Eterna round: R97, puzzle: Sensor, turn-off variant 1) | 14.6 nM | 15 nM | – | –
25 | AAUUGCUAGCCGAUCCUCCACAUGAGGAUCACCCAUGUGCUUGUCUUGUAAUGUACUAUCACGAAAGUGAUAGUACA [Sensor v3, turn-off variant 1 (MOD of Eli's v1-59 v.5)] (puzzle: Sensor v3, turn-off variant 1) | – | – | – | apparent KD of MS2 coat protein [3]: 44.7 nM; apparent KD of MS2 coat protein [2]: 54.7 nM; apparent KD of MS2 coat protein [4]: 43.2 nM
26 | AAUUUACAUGAGGAUCACCCAUGUCAGGAUAUGGUUUUAUUUUUUUCUUUUCUUGAUUCCAGAAGGGACAGCUA (puzzle: Exclusion 1) | – | – | – | apparent KD of MS2 coat protein [2]: 82.2 nM
